The text below walks through data of the nanobody polyreactivity screen of Harvey et al. (2022).

The data set in a line: yeast display, Sf9 membrane polyspecificity reagent, FACS + sequencing; frameworks hold sequencing errors. Put shortly: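 After 36–48 hours of galactose induction, yeast (Saccharomyces cerevisiae BJ5465) displaying a synthetic nanobody library were stained at 4 °C for 1 hour with 10% biotinylated, detergent-solubilized Sf9 membrane reagent. Streptavidin microbeads enriched the stained cells before FACS sorting into low and high (top ~1%) gates on anti-HA and streptavidin fluorescence. Each clone's polyreactivity label reflects its gate of origin.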
Regarding “QVQLGESGGGLVQSGGSLRLSCAASGRTFCYYAMGWYRQAPGKERELVAAITNRGGNKYYADSVKGRFTISRDNAKNTVYLQMNSLKPEDTAVYYCAAYNRIYGYHTLYYWGQGTQVTVSS”, the “polyreactivity (PSR sort gate)” value is “high polyreactivity”.
The value for “QVQLGESGRGLVQEGGSLGLICAASGGIFKYNAMGWYRQAPGKERELVAAIRSTGSTYADSVKGRFTISRDNAKNTVYLQMNSLKPEDTAVYYCAAQYWRRKKYYYWGQGTQVTVSS” was “high polyreactivity”.
Under “QVQLGESRRGLVQAGGSLRLSCAASGITFWYNATGWYRQSPGKERELDAAISRSAGSTYYADSVKGRFTISRDNAKNTVYLQMNSLKPEDTAVYYCAAKTPGRYYYWGQGTQVTVSS” stands “high polyreactivity”; under “QVQLHESGGGLVQAGGSLRLSCAASGTISYAGPMGWYRQAPGKEREFVAAIGVGSNTNYADSVKGRYTIIRDNAKNTVYLQMNSLKPEDTAVYYCAVGGYAPLGRPYWCQGTQVTVSS”, “low polyreactivity”; under “QVQLHESGGGLVQAGGSLRMSCAASGTISVTYNKGWYRQAPGKEREFVAGNSTGATTNYADSVKGRFTISRDNAKNCVYLQMNSLKPDDTAVYYCAAHIYRQDHFYYWGQGTQVTVSS”, “low polyreactivity”.
With “QVQLHESGGGLVQSGGSLRLSCAASGTISYAGPMGWYPQAPGKEREFVAGIGVGSNTNYADSVKGRYTIIRDNAKNTVYLQMNSLKPVDTAVYYCAVGGYAPLGRPYCGQGTQVTVSS”, the “polyreactivity (PSR sort gate)” value was “low polyreactivity”.
Regarding “QVQLHESGGGMVQAGGSLRLSCAASGTISYAGPMGWYRQAPGKEREFVAGIGVGSNTNYADSVKGRYTIIRDNAKNTVYLKMNSLKPEDTAVYYCGVGVYAQLGRPYWGQGTQVTVSS”, the “polyreactivity (PSR sort gate)” value is on record as “low polyreactivity”.
The value for “QVQLHESGSGLVQAGGSLRLSCAASGAIFPANLMGWYRQAPGKERELVAGISYGSITYCADSVKGRFNISRDNAKHTVYLQMNSLKPEDTAVYYCEVWRPGGDEYYYWGQGTQVTVSS” was “low polyreactivity”; that for “QVQLLDSGGGLVQAGGSLRLSCDASGRTIDIYAMGWYRQAPGKERELVAAISSGGSTYYADSVKGRFTISRDNAKNTVYLQMNSLKPEDTAVYYCAVRWYDQVSRRGIGYYWGQGTQVTVSS” was “low polyreactivity”; that for “QVQLLEAGGGLVQAGGSLRFSCAHSGSIVSHYAIGWYRQAPGKERELVAAITGGGITYYADSVKGRFTISRDNAKNTVYLQMNSLKPEDTAVDYCDTDSLMFTIYDYWGQGTQVTVSS” was “low polyreactivity”.
With “QVQLLESAGGLVQAGGSLRLRCSASGYISCDASMGWYRHAPGKERELAASITKGSSTNYADSEKGRFTIRDNAINTVYLQMNSLKPEDTAVCYCAVTYPYWGDYTYWGHGTQVTVSS”, the “polyreactivity (PSR sort gate)” value is “low polyreactivity”.
The value for “QVQLLESGAGLVQAGGSLRLICAASVNTFYWYAMGRYRQAPGKERELVAAITWSGGSTHYADSVKGRFTISRDNAKNTVYLQMNSLTPEYTAVYYCAARYFRWWDMGYWGQGTQVSVSS” was “high polyreactivity”; that for “QVQLLESGCGLVQAGGSLSIRCAATGFIFIFIAMGWSRQATGTERELVAAIDTSDDSTYYADSVMGRFTISRDNAKNTVYLQMNRLKTEDTAVYYCAAEELSNYEYWGQGTQVTVSS” was “low polyreactivity”.
The value for “QVQLLESGGGFVQEGGSLRLICAASGLTFYYNAMGWYRQAPGTERELVAAISFSGGRTYYADSVKGRFTISRDNAQNTVYLQMNSLKPEDTAVYYCAARVPRYRKDSVWAYYYWGQGTQVTVSS” was “high polyreactivity”; that for “QVQLLESGGGLDQAGGTLRLSWAASGIIFSFYTMGWYRQAPGKERELVAAITWSGGSTYYADSVKGRFTISRDNAKNTVYLQMNSLKPDDTAVYYCIARNPGRKRSQGYSWGQGTQVTVSS” was “low polyreactivity”; that for “QVQLLESGGGLDQARGSLRLSCAASGITFEYNAMGWYRQAPGKERELVAAISLSSGSTYYADSVKGRFTISRDNAKNTVYLQMNSLKPEDTAVYYGNADTIIYEGGYWGQGTQVTVSS” was “low polyreactivity”.
Consider “QVQLLESGGGLVKAGGCRRLSCAASGSTLTPYTMGWYSEAPGIERELVAAMTQCGGTTYYADSVKGRFTISRDNAQNTVYVQMNSLKPEDTAVYYCAARSYGSTSPIRVQLYYWGQGTQVTVSS”, for which the “polyreactivity (PSR sort gate)” value is “high polyreactivity”.
In the case of “QVQLLESGGGLVLAGGSLRLSCAASGRIFNLYAMGWYRQAPGKERELVAAITDIGSSTYYADSVKGRFTISRDNAKNTVYLQMNSLKPEDTAVYYCNAVVKSSSRGSIAHPGYDYWGQGTQVTVSS”, the “polyreactivity (PSR sort gate)” value is on record as “high polyreactivity”.
In the case of “QVQLLESGGGLVPSGGSLRLSCAASGLTLYTYAMGWYRQAPGKERELVAAISKNGGRTYYADSVKGRFTISRDNAKITVYLQMNSLKPEDTAVYYCADRARVGTVTFDYWGQGTQVTVSS”, the “polyreactivity (PSR sort gate)” value is listed as “low polyreactivity”.
The value for “QVQLLESGGGLVPSRGSLRLSCAASGFTFAHYAMGWYRQAPGKERELVAAISGSGSSTYYADSVKGRFTISRDNAKNNVYLQMNSLKPEDTADYYCNVRWYFLYDYWGQGTQVTVSS” was “low polyreactivity”; that for “QVQLLESGGGLVQAGCSLRLSCAASGFIFSYAMGWYRQAPGKERQLVAAISKSGCRTYYADSVKGRFTISRDNAKNTVYLQMNSMKPEDTEVYYCAVRDLHLSNARYNFWGQGNQVTVSS” was “high polyreactivity”.
The value for “QVQLLESGGGLVQAGGCLRLRCAASVRTFEQNAMGWCRRAPGKERELVASITSVGSTDYADSVKGRFTISRDNAKNTVYLQMNSLKPEDTAGYYCAKTLGSQNYDFDYWGQGTQVTVSS” was “low polyreactivity”; that for “QVQLLESGGGLVQAGGILRLSCAASGSTFYPYAMGWSRQAPGKDRELVAAITGTGGSTYYADSVKGRFRISLDNAKNTVDLQMNSLKPEDPAVYYCATRRRYYYSGYNYWGQGTQVTVSS” was “high polyreactivity”; that for “QVQLLESGGGLVQAGGSLRESCAASGSMFSHNTMGWYRQAPGKERELVATINWRATYYADSVKGRFTISRDNAKNTVYLQMNSLKPEDTAGYYCNKDRQRYGEDYWGQGTQVTVSS” was “high polyreactivity”.
Consider “QVQLLESGGGLVQAGGSLRISCASSGRTFSSNTMGRYRQAPGKERELVAAISSTDSTYYADSVKGRYTISRDNAKNTVYLQMNSLKPEDTAVYYCAKRPTRRYGYWGQGTQVTVSS”, for which the “polyreactivity (PSR sort gate)” value is reported as “high polyreactivity”.
Under “QVQLLESGGGLVQAGGSLRLICAASGRIIYGYAMGWYRQAPGKERELVAAITATYYADSVKGRFTISRDNAKNTVYLQMKSLKPVDSGVYYCNAYLSPKQPLSTPDPSFEGGYWGQGTQVTVSS” stands “low polyreactivity”.
Consider “QVQLLESGGGLVQAGGSLRLRCASSGSISDWNAMGWYRQAPGKERELVAAISRGGNTNYADSVKGRFTISRDNAKNTVYLQMNSLKPEDTAVYYCAAGHGSLRYNYWGQGTQVSVSS”, for which the “polyreactivity (PSR sort gate)” value was “high polyreactivity”.
With “QVQLLESGGGLVQAGGSLRLSCAASGFIFPGYAMGWYRQAPGKEREFVAAITSRGGSTYYADSVKGRFTISRDNAKNTVYLQMNSLKPEDTAVYYCAARNFLSRRGTYDYWGQGTQVTVSS”, the “polyreactivity (PSR sort gate)” value is reported as “high polyreactivity”.
The value for “QVQLLESGGGLVQAGGSLRLSCAASGFTLTRNAMGWYRQAPGKEREFVAAISWSGGSTYADSVKGRFTISRDNAKNTVFLQMNSLKPEDTAVYYCAADRYNGRYGYWGQGTQVTVSS” was “high polyreactivity”; that for “QVQLLESGGGLVQAGGSLRLSCAASGGTFYSYAMGWYRQAPGKEREFVATITRRSGSTYYADSVKGRFTISRDNAKNTVYLQMNSLKPEDNAVYYCAATKYKLLFIHFRYDYWGQGTQVTVSS” was “high polyreactivity”.
